The target of the assay is Skp(S126C) (UniProt P0AEU7). Description: SEC; HiLoad 16/600 Superdex 200 pg; NMR buffer (20 mM MES, pH 6.5, 150 mM NaCl, 1 mM DTT); refolded protein eluted at 79 mL.

As usually defined, the stoichiometry N is the number of molecules, sites or subunits per partner or assembly. With “Skp(S126C) (from UniProt P0AEU7 21-161) (natural protein)”, the stoichiometry N is 3.
